Molecular target: the two scFvs (17-21-A01-sc01 and 17-21-A01-sc03)
Assay: competition ELISA: IC50 of TNFβ relative to IC50 of TNFα on coated scFv

selectivity for binding to TNFα over TNFβ: > 20000 fold
B1: recombinant human TNFβ (Peprotech, Cat. No. 300-01B) (ligand, UniProt P01374 35-205, looked up)
chain: LPGVGLTPSAAQTARQHPKMHLAHSTLKPAAHLIGDPSKQNSLLWRANTDRAFLQDGFSLSNNSLLVPTSGIYFVYSQVVFSGKAYSPKATSSPLYLAHEVQLFSSQYPFHVPLLSSQKMVYPGLQEPWLHSMYHGAAFQLTQGDQLSTHTDGIPHLVLSPSTVFFGAFAL
